This is an account of results in patent publication EP4650366A1.

Test [1] concerns the target Human GARP-TGFβ1 complex (human) (UniProt Q14392). The test can be described thus: SPR (Biacore T200), method of Example 4. In general terms: Surface plasmon resonance follows binding to a sensor surface in real time, without labels.
Test [2] shares this target. The test can be described thus: SPR (Biacore T200), antibody on Protein A chip, antigen in flow.

Sequence of Human GARP-TGFβ1 complex (human) (Q14392 other isoform, or with tags, fused parts or gaps limits assumed, chain 1 of 2): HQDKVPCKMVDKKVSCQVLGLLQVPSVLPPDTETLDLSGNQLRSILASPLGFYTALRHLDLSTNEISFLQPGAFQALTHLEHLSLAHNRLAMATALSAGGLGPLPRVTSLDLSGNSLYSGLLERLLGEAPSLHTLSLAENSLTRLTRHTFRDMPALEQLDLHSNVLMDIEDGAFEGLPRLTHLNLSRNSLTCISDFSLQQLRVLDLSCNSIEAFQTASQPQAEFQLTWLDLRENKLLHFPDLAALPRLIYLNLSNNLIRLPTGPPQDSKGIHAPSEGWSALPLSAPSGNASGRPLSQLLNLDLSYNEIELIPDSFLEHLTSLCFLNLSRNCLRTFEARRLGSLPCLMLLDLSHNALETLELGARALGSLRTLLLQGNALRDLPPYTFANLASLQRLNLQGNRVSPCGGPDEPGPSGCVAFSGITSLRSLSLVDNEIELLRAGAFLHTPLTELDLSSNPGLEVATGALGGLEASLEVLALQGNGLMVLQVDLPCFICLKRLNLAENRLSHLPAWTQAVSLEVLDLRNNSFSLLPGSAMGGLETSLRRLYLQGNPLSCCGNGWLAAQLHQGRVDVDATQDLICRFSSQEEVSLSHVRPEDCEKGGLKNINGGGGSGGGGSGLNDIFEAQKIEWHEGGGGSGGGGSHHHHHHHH
Sequence of Human GARP-TGFβ1 complex (human) (chain, as listed by the source limits assumed, chain 2 of 2): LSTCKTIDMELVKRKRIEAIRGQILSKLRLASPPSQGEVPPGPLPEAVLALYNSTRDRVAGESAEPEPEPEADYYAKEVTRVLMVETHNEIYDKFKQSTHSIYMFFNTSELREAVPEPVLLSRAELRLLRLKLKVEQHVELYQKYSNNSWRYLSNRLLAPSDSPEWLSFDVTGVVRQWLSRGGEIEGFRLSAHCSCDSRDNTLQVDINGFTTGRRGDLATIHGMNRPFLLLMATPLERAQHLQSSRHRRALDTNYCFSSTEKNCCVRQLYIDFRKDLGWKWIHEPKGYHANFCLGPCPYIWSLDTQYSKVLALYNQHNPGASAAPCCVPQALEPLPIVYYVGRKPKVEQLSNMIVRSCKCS

Turning to Abbv-151 (antibody), in test [1], the Kd came to 0.98 nM, the koff was 0.000151 s⁻¹ and the kon was 154000 M⁻¹ s⁻¹. In test [2], this substance came in with a dissociation constant Kd of 4.39 nM, a koff of 0.00283 s⁻¹ and a kon of 645000 M⁻¹ s⁻¹.

In general, Kd refers to the free concentration of one partner at which half of the binding sites on the other are occupied at equilibrium, for simple one-to-one binding. A high value points to lower affinity. For orientation: koff means the rate constant with which the complex falls apart. High values mean a short-lived complex, low ones a long-lived complex. One may read the kon as the rate constant with which the complex forms.
